Reference: patent publication US20120045438A1 (Janssen / Centocor, published 2012)

Molecular target: T1, human IL-13 R130Q variant (R110Q of the mature chain) (human, UniProt P35225 35-146, Biotinylated on amines (NHS-LC-biotin, 4:1) in ELISA, panning and competition assays. The letters are unchanged.)
T1 construct: R130Q counts from Met 1 of the signal peptide, R110Q on the mature chain; Bought from Peprotech; also called IL-13 R110Q; b-R130Q
Assay: single-point (10 nM) phage Fab ELISA on biotinylated IL-13 R130Q

Binder | Signal (% of Lc16Hc7) [%]
Fab clone 2C06 (IL-13-62 library) (Fab, V domains shown, Fab on phage pIX; del = residue deleted) VH: QVTLKESGPVLVKPTETLTLTCTVSGFSLSTYGMGVGWIRQPPGKALEWLAHIWWDDVKRYNPALKSRLTISKDTSKSQVVLTMTNMDPVDTATYYCARMGSDYDVWFDYWGQGTLVTVSS VL: EIVLTQSPATLSLSPGERATLSCRASKSISKYLAWYQQKPGQAPRLLIYSGSTQQSGIPARFSGSGSGTDFTLTISSLEPEDFAVYYCQQHDYPYTFGQGTKLEIK | 128
Fab clone 2B07 (IL-13-62 library) (Fab, V domains shown, Fab on phage pIX) VH: QVTLKESGPVLVKPTETLTLTCTVSGFSLSTYGMGVGWIRQPPGKALEWLAHIWWDDVKRYNPALKSRLTISKDTSKSQVVLTMTNMDPVDTATYYCARMGSDYDVWFDYWGQGTLVTVSS VL: EIVLTQSPATLSLSPGERATLSCRASKSISKYLAWYQQKPGQAPRLLIYSGSTLQSGIPARFSGSGSGTDFTLTISSLEPEDFAVYYCQQHDWGPYTFGQGTKLEIK | 144
Fab clone 1B05 (IL-13-62 library) (Fab, V domains shown, Fab on phage pIX) VH: QVTLKESGPVLVKPTETLTLTCTVSGFSLSTYGMGVGWIRQPPGKALEWLAHIWWDDVKRYNPALKSRLTISKDTSKSQVVLTMTNMDPVDTATYYCARMGSDYDVWFDYWGQGTLVTVSS VL: EIVLTQSPATLSLSPGERATLSCRASKSISKYLAWYQQKPGQAPRLLIYSGSTLQSGIPARFSGSGSGTDFTLTISSLEPEDFAVYYCQQHDRDPYTFGQGTKLEIK | 108
Fab clone 1A07 (IL-13-62 library) (Fab, V domains shown, Fab on phage pIX) VH: QVTLKESGPVLVKPTETLTLTCTVSGFSLSTYGMGVGWIRQPPGKALEWLAHIWWDDVKRYNPALKSRLTISKDTSKSQVVLTMTNMDPVDTATYYCARMGSDYDVWFDYWGQGTLVTVSS VL: EIVLTQSPATLSLSPGERATLSCRASKSISKYLAWYQQKPGQAPRLLIYSGSTLQSGIPARFSGSGSGTDFTLTISSLEPEDFAVYYCQQHDNSPYTFGQGTKLEIK | 120
Fab clone 1C09 (IL-13-62 library) (Fab, V domains shown, Fab on phage pIX) VH: QVTLKESGPVLVKPTETLTLTCTVSGFSLSTYGMGVGWIRQPPGKALEWLAHIWWDDVKRYNPALKSRLTISKDTSKSQVVLTMTNMDPVDTATYYCARMGSDYDVWFDYWGQGTLVTVSS VL: EIVLTQSPATLSLSPGERATLSCRASKSISKYLAWYQRKPGQAPRLLIYSGSTLQSGIPARFSGSGSGTDFTLTISSLEPEDFAVYYCQQHNEAPYTFGQGTKLEIK | 152
Fab clone 1D02 (IL-13-62 library) (Fab, V domains shown, Fab on phage pIX) VH: QVTLKESGPVLVKPTETLTLTCTVSGFSLSTYGMGVGWIRQPPGKALEWLAHIWWDDVKRYNPALKSRLTISKDTSKSQVVLTMTNMDPVDTATYYCARMGSDYDVWFDYWGQGTLVTVSS VL: EIVLTQSPATLSLSPGERATLSCRASKSISKYLAWYQQKPGQAPRLLIYSGSTLQSGIPARFSGSGSGTDFTLTIGSLEPEDFAVYYCQQHDWSPYTFGQGTKLEIK | 117
Fab clone 2D04 (IL-13-62 library) (Fab, V domains shown, Fab on phage pIX; del = residue deleted) VH: QVTLKESGPVLVKPTETLTLTCTVSGFSLSTYGMGVGWIRQPPGKALEWLAHIWWDDVKRYNPALKSRLTISKDTSKSQVVLTMTNMDPVDTATYYCARMGSDYDVWFDYWGQGTLVTVSS VL: EIVLTQSPATLSLSPGERATLSCRASKSISKYLAWYQQKPGQAPRLLIYSGSTLQSGIPARFSGSGSGTDFTLTISSLEPEDFAVYYCQQQDSPYTFGQGTKLEIK | 100
Fab clone without printed name, L-CDR3 Q D G del (IL-13-62 library) (Fab, V domains shown, Fab on phage pIX; del = residue deleted) VH: QVTLKESGPVLVKPTETLTLTCTVSGFSLSTYGMGVGWIRQPPGKALEWLAHIWWDDVKRYNPALKSRLTISKDTSKSQVVLTMTNMDPVDTATYYCARMGSDYDVWFDYWGQGTLVTVSS VL: EIVLTQSPATLSLSPGERATLSCRASKSISKYLAWYQQKPGQAPRLLIYSGSTLQSGIPARFSGSGSGTDFTLTISSLEPEDFAVYYCQQQDGPYTFGQGTKLEIK | 184
Fab clone 1A05 (IL-13-62 library) (Fab, V domains shown, Fab on phage pIX) VH: QVTLKESGPVLVKPTETLTLTCTVSGFSLSTYGMGVGWIRQPPGKALEWLAHIWWDDVKRYNPALKSRLTISKDTSKSQVVLTMTNMDPVDTATYYCARMGSDYDVWFDYWGQGTLVTVSS VL: EIVLTQSPATLSLSPGERATLSCRASKSISKYLAWYQQKPGQAPRLLIYSGSTLQSGIPARFSGSGSGTDFTLTISSLEPEDFAVYYCQQHDYAPYTFGQGTKLEIK | 136
Fab clone 1D01 (IL-13-62 library) (Fab, V domains shown, Fab on phage pIX) VH: QVTLKESGPVLVKPTETLTLTCTVSGFSLSTYGMGVGWIRQPPGKALEWLAHIWWDDVKRYNPALKSRLTISKDTSKSQVVLTMTNMDPVDTATYYCARMGSDYDVWFDYWGQGTLVTVSS VL: EIVLTQSPATLSLSPGERATLSCRASKSISKYLAWYQQKPGQAPRLLIYSGSTLQSGIPARFSGSGSGTDFTLTISSLEPEDFAVYYCQQHSYGPYTFGQGTKLEIK | 144
Fab clone 1C06 (IL-13-62 library) (Fab, V domains shown, Fab on phage pIX) VH: QVTLKESGPVLVKPTETLTLTCTVSGFSLSTYGMGVGWIRQPPGKALEWLAHIWWDDVKRYNPALKSRLTISKDTSKSQVVLTMTNMDPVDTATYYCARMGSDYDVWFDYWGQGTLVTVSS VL: EIVLTQSPATLSLSPGERATLSCRASKSISKYLAWYQQKPGQAPRLLIYSGSTLQSGIPARFSGSGSGTDFTLTISSLEPEDFAVYYCQQHSWGPYTFGQGTKLEIK | 172
Fab clone 1A06 (IL-13-62 library) (Fab, V domains shown, Fab on phage pIX) VH: QVTLKESGPVLVKPTETLTLTCTVSGFSLSTYGMGVGWIRQPPGKALEWLAHIWWDDVKRYNPALKSRLTISKDTSKSQVVLTMTNMDPVDTATYYCARMGSDYDVWFDYWGQGTLVTVSS VL: EIVLTQSPATLSLSPGERATLSCRASKSISKYLAWYQQKPGQAPRLLIYSGSTLQSGIPARFSGSGSGTDFTLTISSLEPEDFAVYYCQQHEWGPYTFGQGTKLEIK | 122
Fab clone 1C07 (IL-13-62 library) (Fab, V domains shown, Fab on phage pIX) VH: QVTLKESGPVLVKPTETLTLTCTVSGFSLSTYGMGVGWIRQPPGKALEWLAHIWWDDVKRYNPALKSRLTISKDTSKSQVVLTMTNMDPVDTATYYCARMGSDYDVWFDYWGQGTLVTVSS VL: EIVLTQSPATLSLSPGERATLSCRASKSISKYLAWYQQKPGQAPRLLIYSGSTLQSGIPARFSGSGSGTDFTLTISSLEPEDFAVYYCQQHESGPYTFGQGTKLEIK | 136
Fab clone 1A02 (IL-13-62 library) (Fab, V domains shown, Fab on phage pIX) VH: QVTLKESGPVLVKPTETLTLTCTVSGFSLSTYGMGVGWIRQPPGKALEWLAHIWWDDVKRYNPALKSRLTISKDTSKSQVVLTMTNMDPVDTATYYCARMGSDYDVWFDYWGQGTLVTVSS VL: EIVLTQSPATLSLSPGERATLSCRASKSISKYLAWYQQKPGQAPRLLIYSGSTLQSGIPARFSGSGSGTDFTLTISSLEPEDFAVYYCQQHSWAPYTFGQGTKLEIK | 120

Molecular target: T1, human IL-13 R130Q variant (R110Q of the …)
Assay: Ra2 binding inhibition ELISA, mAb in crude HEK293 supernatant, IL-13 binding to IL-13Ra2

Binder | % Ra2 Binding Inhibition [%]
mAb with Lc 5H04 (Lc6 variant) and Hc2 (antibody, V domains shown, human IgG1) VH: QVTLKESGPVLVKPTETLTLTCTVSGFSLSTYGMGVGWIRQPPGKALEWLAHIWWDDVKRYNPALKSRLTISKDTSKSQVVLTMTNMDPVDTATYYCARMGSDYDVWFDYWGQGTLVTVSS VL: EIVLTQSPATLSLSPGERATLSCRASKSISKYLAWYQQKPGQAPRLLIYSGSTLQSGIPARFSGSGSGTDFTLTISSLEPEDFAVYYCQQHDYAPYTFGQGTKLEIK | 66.1
mAb with Lc 5G02 (Lc6 variant) and Hc2 (antibody, V domains shown, human IgG1) VH: QVTLKESGPVLVKPTETLTLTCTVSGFSLSTYGMGVGWIRQPPGKALEWLAHIWWDDVKRYNPALKSRLTISKDTSKSQVVLTMTNMDPVDTATYYCARMGSDYDVWFDYWGQGTLVTVSS VL: EIVLTQSPATLSLSPGERATLSCRASKSISKYLAWYQQKPGQAPRLLIYSGSTLQGGIPARFSGSGSGTDFTLTISSLEPEDFAVYYCQQHLDSPYTFGQGTKLEIK | 66.2
